In the nanobody polyreactivity screen of Harvey et al. (2022):

Experiment: yeast display, Sf9 membrane polyspecificity reagent, FACS + sequencing; frameworks hold sequencing errors
How it was run: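 Polyreactivity labels are assigned by the sorting gate from which each nanobody was recovered. The gates were low and high (top ~1%), set on anti-HA fluorescence for expression and streptavidin fluorescence for reagent binding. Before sorting, galactose-induced (36–48 hours) yeast display cells were stained for 1 hour at 4 °C with 10% biotinylated, detergent-solubilized Sf9 membrane reagent.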

Sequence	polyreactivity (PSR sort gate)
QVQLVESGGVLVLVGGSLRLSCADSGMTFYWYTMGWYRQAPGKERELVAAITRRSARTYYADSVKGRFSISRDNAKNTVYLQMNILKPEDTAVYYCGAAGRPGGYVQRDSWGQGTQVTVSS	high polyreactivity
QVQLVESGGGLVQAGGSLRLSCAASGSTSPRNAMGWYRQAPGKERELVAAISSGGRTNYAVSVKGRFTISRDNAKNTVYLQMNSLKPEDTAVYYCAAAVQSTYWGQGTQVTVSS	low polyreactivity
QVQLVESGGGLVQAGGSLRLSCAASGRTISVYGMGWYRQAPGKERELVASITWRGGTTYYADSVKGRFTISRDNAKNTVYLQMNSLKPEDTAVYYCAAYWPYTTYRYRYDYWGQGTQVTVSS	high polyreactivity
QVQLVESGGGLVQAGGSLRLSCAASGSIFGTYPMGWYRQAPGKERELVAAITRRGGSTFYADSVKGRFTISRDNAKNTVYLQMNSLKPEDTAVYYCAAPPYYWGQGTQVTVSS	high polyreactivity
QVQLVESGGGLVQAGGSLRLSCAASGFILWYYTMGWYRQAPGKERELVAVIDWSGDSTYADSVKGRFTISRDNAKNTVYLQMNSLKPEDTAVYYCNKGYPSPQDTYYVPMDYWGQGTQVTVSS	low polyreactivity
QVQLQESGGGLVQAGGSLRLSCAASGPISRRSTMGWYRQAPGKERELVTAITRGTNTNYADSVKGRFTISRDNAKNTEYLQMNSLKPVDTAVYYCAAYGVLNPSRGDAVFHRYWGQGTQVSVSS	low polyreactivity
QVQLVESGGGLVQAGGSLRLSCAASGRTFYFNGMGWYRQAPGQERELVARISRRGGSTYYADSVKGRFTISRDNAKNTVYLQMNSLKPEDTAVYYCNTANYLLYDWGQGTQVNVSS	high polyreactivity
QVQLVETGGGLVQAGGRLRLSCAASGITFYFNTMGWYRPAPGKERELVASISGGSSTYYADSVKGRFPISRDNAKNTVYLQMISLKREDTAVYYCNAQGSLFRGWFDYDYWGQGTQVTVSS	low polyreactivity
QVQLVESGGGLVQAGGSLRLSCAASGGTFYGYAMGWYRQAPGKERELVAASNYRGGRTYYADSVKGRFTISRDNAKNTGYLQMNSLKPEDTAVYYCAATSYRLDGYDYWGQGTQVTVSS	high polyreactivity
QVQLVESGGGLVQAGGSLRLSCAASGSTFSFYAMGWYRQAPGKERELVAAISSRGGSTYYADSVKGRFTISRDNAKNTVYLQMNSLKPEDTAVYYCAVRRYPHFYHRGGFNFNGYDYWGQGTQVTVSS	high polyreactivity
QVQLVESGGGLVQAGGSLRLSCAASGSTFHLYAMGWNRQAPGKERQFVAAIRGRGGNTYADSVKGRFTISRDNAKNTVYLQMNSLKPEDTAVYYCAAPLLRDLRSPYSYNYWGQGSQVTVSS	low polyreactivity
QVQLVESGGGLVQAGGSLRLSCAASGRTFQLNAMGWYRQAPGKEREFVATISTGGGGTFYADSVKGRFTISRDNAKNTVYLQMNSLKPEDTAVYYCNAGGETYIFRDLRHDYWGQGTQVTVSS	low polyreactivity
QDQLVESGVGFVQAGVSLRLSSAASGSIFYLNAMGWYRQAPGKERELVAAITNGGSTYADSVKGRFTISRDNAKNTVYLPMNSLKPEDPAVYYCATRSWELGDYLGQGTQVTVSS	low polyreactivity
QVQLVEYGGGLVQAGGSLRLSCAASGRIFGYYTMGWYRQAPRKERELVAAITSSGGRTYYADSVKGRFTISRDNAKNTVYLQMNSLKPEDTAVYYCNKVTFGYAYWRYDGYDYWGQGTQVTVSS	low polyreactivity
QVQLVESGGGLVQAGGSLRLSCAPSGRIFYAYAMGWYRHAPGKERELVAAITIGGNTNYADSVKGRFTSSRDNAKNTVYLQMNSLKPEVTAVYDCNARTYYYPWRGYHVVGSNDLGYWGQGTQVTVST	low polyreactivity
QVQLQESGGGLAQAGGSLRLSCAASGNIFDADIMGWYRQAPGKERELVGSITDGGSTNYVDSVKGRFTISRDNAKNTVHLQMNSLKPEDTAVYYCAAIAYPDIPTYFDYDSDCFNWGHGTQVTVSS	high polyreactivity
QVQLVESGGGLVQAGGSLRISCAGSGSIFSRNAMGWYSQAPGTERELVAAITGSGSSTYYADSVKGRFTISRDNAKNTVYLQMNSLKPEDTAGYYCNAARVYLSEWGQGTQGTVSS	high polyreactivity
QVQLVESGGGLVQEGGCLRLSSAASGSIFKSNAMGWYRQAPGKERELVATISRIGGSTYYADSVKGRFTISRDNAKNTVYLQMNCLKPEDTAVYYFAARRYLYTVGYGPRRGLVYWGQGTQVTVSS	high polyreactivity
QVQLVQSRGVLVQAGGSLRLSCAASGSIFKYNAMGWYRQAPGKERELVAAITYSGGSTYYADSVKGRFTISRDNAKNTVYLQMNSLKPEDTAVYYCNAYRRFSAFDYWGQGTQVTVSS	high polyreactivity
QVQLVESVGGLVQAGGSLRLSCAASGSILVSYAMGWSRQAPGKERELGPAITQGGGSTYYADCVKGRFTFSRDNAKNTVYLQMNSLKPEDTAVYYCSVDGLSDDRYSAGGDYWGQGTQVTVSS	low polyreactivity
QVQLVESGGGLVQAGGSLRLSCAASGSIVYTNALGWSRQAPAKERELVAAISGSGGNTYYADSVKVRFTISRDNAKNTVYLQMNSLNPEDTAVYYCAADRNAYYYDSYYYWGLGTQVTVSS	high polyreactivity
QVQLVESGGVLVQAGGSLRLSCAASGLTFSWYAMGWYRQAPGKERELVASINYSGANTYYADSVKGRFTISRDNAQNTVFLQMNSLKPEDTAVYYCNSRLRRYQNERVTYDYWGQGTQVTVSS	high polyreactivity

Sequence	polyreactivity (PSR sort gate)
QVQLVESGGGLVQAGGSLRLSCAASGLTLWTYAMGWYIQAPGQERELVARIRSGGSTYYADSVKGRFTISRDNAKNTVYLQMNSLKPEDTAVYYCAADLQSRVDYWGQGTQVTVSS	high polyreactivity
QVQLVESGGGLVQAGGSLRLSCAASGFTFERYSMGWYRQAAGKEMELVASISRRSGRTSYADSVKGRFTISRDNAKNTVYLQMKSLIPEDTAVYYCAVDDAYPDGYDYWGQGTQVTVSS	high polyreactivity
QVQLVESGGGLVQAGGSLRLSCAASGRTFNGYVMGWYRQAPGKEREFVAVINWSGGNTYYADSVKGRFTISRDNAKNTVNLQMNSLKPEDTAVYYCAARRVRSYAYDYWGQGTQVTVSS	high polyreactivity
QVQLVESGGGLVQAGGSLRLSCAASGRTFFRNTMGWYRQAPGKERELVATISSSGGSTYYADSVKGRFTISRDNAKNTVYLQMNSLKPEDTAVYYCAAAPSKWYYGYGYWGQGTQVTVSS	high polyreactivity
QVQHVESGGGLVQAGGSLRLSGAASGSTFQSYAMGWYRQAPGQERELVAAISTSDTDRTYYADSVKGRFTISRDNAKNTVYLQMNSLKPEDTAVYYCNADGYAHGDWYGYWGQGTQVTVSS	low polyreactivity
QVQLVESGGGLVQAGGSLRLSCAASGLIFPYYVKVWYRQAPGKERELVAAISWNGSSTYYADSVKGRFTISRDNAKNTVYLQMNSLKPEDTAVYYCAASYGYFEDYGYWGQGTQVTVSS	low polyreactivity
QVQLVESGGGLVQAGGSLRLSCAASGRIFGAYAMGWYRQAPGKERELVAAITSRGGNTYYADSVKGRFTISRDNAKNTVYLQMNSLKPEDTAVYYCAARHDKLRQYYVGQSAFDYWGQGTQVTVSS	low polyreactivity
QVQLVESGGGVVQAGGSLRLSCPASGSIFETYVMGWYRPAPGIERELVAAINSGGSTNYADSVKGRFTISRDNAKNTVYLQMNRLKPEDTAVYYCNADWFTPAQPWYRSFIRYDYWGQGTQVTVSS	low polyreactivity
QVQLVESGGGLVQAGGSLRLSCAASGSIFAYNAMGWYRQAPGKEREFVAVITRSDDSTYADSVKGRFTISRDNAKNTVFLQMNRLKPEDTAVYDCAAQPFVIDGGYRGDYWGQGTQVTVSS	low polyreactivity
QVQLVESGGGLVQAGGSLRLSCAASGRIFYRNAMGWYRQAPGKERELVAAISRRGGSTSYADSVKGRFTISRDNANNTVYLQMNSLKPEDTAVYYCAASRFRTGQEDDYWGQGTQVTVSS	high polyreactivity
QVQLVESGGGLVQAGGSLRLSCAASGLTFDYYAMGWYRQAPGKERELVAAISASCSSTYYADSVKGRFTISRDNAKNTVYLQMNSLKPEDTAVYYCAAVTKSSVPGSRYDYWGQGTQVTVSS	high polyreactivity
QVQLVESGGGLVQAGGSLRLSCAASGSIFLHNAMGWYRQAPGKERELVAAISGTGGRTYYADSVKGRFTISRDNAKNTVYLQMNSLKPEDTAVYYCAKTLRDPYRYDYWGQGTQVTVSS	high polyreactivity
QVQLVESGGGLVQAGRSLRLSCAASGRIFRFKTMGWYRQSPGKERELVAAITYSGGGTYYADSVKGRFTISRDNAKNTVYLQMNSLKPEDTAVYYCAATLYLRTIDDYWGQGTQVTVSS	high polyreactivity
QVQLVESGGGLVQAGGSLRLSCAPSGSTFTSYAMGWYRQAPGKDRELVAAITYGSGTTYADSVKGRFTISRDNAKNTVYLQMNSLKPEDTAVYYCAADFYYPVLGHGFPTYEYDYWGQGTQVTVSS	low polyreactivity
QGQLVESGGCLVQAGGSRRLSCAASGRTFRGNAMGWYRQAPGKERELVPAISRRGGSTYYSDSVKGRFTISRDNAKITVYLQMNSLEPEDTADYYCARDDVDDNSYGNENGTYGYWGQGTQVTVSS	high polyreactivity
QVQLVESGGGLVQGGGSLRLSCADSGSTFSSNAMGWYRQAPGKERELVAAITGSGGRTYYADSVKRRFTISRDNAKNTVYLQMNCLKPEDTAVYYCAKRYRGGYWGQGTQVTVSS	high polyreactivity
QVQLVESGGGLVQAGGSLRLSCAASGRIFSYYAMGWYRQAPGKERELVAAISRTGGTTYYADSVKGRFTISRDNAKNTVYLQMNSLNPEDTAVYYCYAVKAPYMRYDYWGQGTQVTVSS	high polyreactivity
QVQLVESGGGLVQAGGSLRLSCAASGITFTGYAMGWSRQAPGKERELVAAISKRGARTYYADSVKGRFTNSRDNAKNTVYIQMNSLKPEDTAVYYCAADSTAQDIAGLYYWGQGTQVTVSS	high polyreactivity
QLQLVDSGGGLVQAGGRLSLSCAASGSIFYRYAMGWYIQAPGKERELVAAITSGGRTYYADSVKGRFTISRDNAKNTVYLQMNSLNPEDTAVYFCNAVYRKTSYGYWGQGTQVTVSS	high polyreactivity
QVQLVESGGGLVQAGGSLRLSCAASGRTSYRYAMGWYRQAPGKERELVAAISWSGGSTYYADSVKGRFTISRDNAKNTVSLQMNSLKPDDTAVYYCNARQHQVRWWLREFDYWGQGTQVTVSS	low polyreactivity
QVQLVESGGGLVQAGGSLRLSCAASGFTFYVYAIGWYRKAPRKEREFVAAISKSGGRTYYADSVKGRFTISRDTAKNTVYLQMNSLKPEDTAVYYCGRYNRYQIIYPRFDYWGHGTQVTVSS	high polyreactivity
